# PMC9786777, “Phosphorylation of Thr9 Affects the Folding Landscape of the N-Terminal Segment of Human AGT Enhancing Protein Aggregation of Disease-Causing Mutants” (Molecules, 2022)
# Tests used:
# [1] = target: alanine:glyoxylate aminotransferase (AGT) NTT, 1-21 (UniProt P21549); experiment: NMR translational diffusion (DOSY), self-association; conditions: sites T9
# [2] = target: the molecule itself; experiment: dynamic light scattering; holo-AGT as purified, 10 µM (in subunit), Na-HEPES 20 mM NaCl 200 mM pH 7.4, 25 °C; hydrodynamic radius compared with the dimer of the crystal structure
molecule,measurement,setting,value
"alanine:glyoxylate aminotransferase (AGT) NTT, 1-21 (from UniProt P21549) NTT-AGT T9E-P11L peptide",other: hydrodynamic radius,[1]; reference: NTT-AGT P11L peptide,none in both; reference 12 ± 2
"alanine:glyoxylate aminotransferase (AGT) NTT, 1-21 (from UniProt P21549) NTT-AGT T9E peptide",other: hydrodynamic radius,[1]; reference: NTT-AGT WT peptide,none in both; reference 12 ± 2
"alanine:glyoxylate aminotransferase (AGT) WT, holo-protein (enzyme, human, UniProt P21549 1-392, looked up, PLP covalently bound to K209 (holo-protein), alanine:glyoxylate aminotransferase (AGT), human, 392 residues; also called holo-AGT) MASHKLLVTPPKALLKPLSIPNQLLLGPGPSNLPPRIMAAGGLQMIGSMSKDMYQIMDEIKEGIQYVFQTRNPLTLVISGSGHCALEAALVNVLEPGDSFLVGANGIWGQRAVDIGERIGARVHPMTKDPGGHYTLQEVEEGLAQHKPVLLFLTHGESSTGVLQPLDGFGELCHRYKCLLLVDSVASLGGTPLYMDRQGIDILYSGSQKALNAPPGTSLISFSDKAKKKMYSRKTKPFSFYLDIKWLANFWGCDDQPRMYHHTIPVISLYSLRESLALIAEQGLENSWRQHREAAAYLHGRLQALGLQLFVKDPALRLPTVTTVAVPAGYDWRDIVSYVIDHFDIEIMGGLGPSTGKVLRIGLLGCNATRENVDRVTEALRAALQHCPKKKL",binding result,[2],binds
"AGT WT with the T9E mutation, holo-protein (enzyme, human, UniProt P21549 1-392, looked up, PLP covalently bound to K209 (holo-protein), alanine:glyoxylate aminotransferase (AGT), human, 392 residues, phosphomimetic T9E; also called T9E (WT background)) MASHKLLVEPPKALLKPLSIPNQLLLGPGPSNLPPRIMAAGGLQMIGSMSKDMYQIMDEIKEGIQYVFQTRNPLTLVISGSGHCALEAALVNVLEPGDSFLVGANGIWGQRAVDIGERIGARVHPMTKDPGGHYTLQEVEEGLAQHKPVLLFLTHGESSTGVLQPLDGFGELCHRYKCLLLVDSVASLGGTPLYMDRQGIDILYSGSQKALNAPPGTSLISFSDKAKKKMYSRKTKPFSFYLDIKWLANFWGCDDQPRMYHHTIPVISLYSLRESLALIAEQGLENSWRQHREAAAYLHGRLQALGLQLFVKDPALRLPTVTTVAVPAGYDWRDIVSYVIDHFDIEIMGGLGPSTGKVLRIGLLGCNATRENVDRVTEALRAALQHCPKKKL",binding result,[2],binds
"AGT WT with the T9A mutation, holo-protein (enzyme, human, UniProt P21549 1-392, looked up, PLP covalently bound to K209 (holo-protein), alanine:glyoxylate aminotransferase (AGT), human, 392 residues, control mutation T9A; also called T9A (WT background)) MASHKLLVAPPKALLKPLSIPNQLLLGPGPSNLPPRIMAAGGLQMIGSMSKDMYQIMDEIKEGIQYVFQTRNPLTLVISGSGHCALEAALVNVLEPGDSFLVGANGIWGQRAVDIGERIGARVHPMTKDPGGHYTLQEVEEGLAQHKPVLLFLTHGESSTGVLQPLDGFGELCHRYKCLLLVDSVASLGGTPLYMDRQGIDILYSGSQKALNAPPGTSLISFSDKAKKKMYSRKTKPFSFYLDIKWLANFWGCDDQPRMYHHTIPVISLYSLRESLALIAEQGLENSWRQHREAAAYLHGRLQALGLQLFVKDPALRLPTVTTVAVPAGYDWRDIVSYVIDHFDIEIMGGLGPSTGKVLRIGLLGCNATRENVDRVTEALRAALQHCPKKKL",binding result,[2],binds
